In US20180142016A1 (EUREKA THERAPEUTICS, published 2018):

Molecular target: T1, human ROR1 on the cell surface (human, UniProt Q01973 30-937)
T1 construct: Endogenous ROR1 of MDA-MB-231, A549, H1299, Jeko-1, primary CLL cells; also called cell surface ROR1; ROR1 positive cells
Experiment: flow cytometry, Zenon Alexa Fluor 647-labelled antibody on CD5+ CD19+ CLL cells of patient 13, MFI of the isotype control at the same concentration subtracted
Description: Anti-ROR1 and control IgG1 antibodies were labeled using a Zenon® Alexa Fluor® 647 human IgG labeling kit (Life Technologies) according to the manufacturer's directions. Frozen peripheral blood mononuclear cells (PBMC) from CLL patients (AllCells LLC) were thawed and washed in FACS buffer (PBS, 2% heat inactivated FBS, 0.1% NaN3). CLL cells were counted and resuspended at 4×10E6 cell/mL in FACS buffer. 2×10E5 cells per test were then incubated in […] FACS buffer with phycoerythrin (PE)-labeled anti-CD5, […] isothiocyanate (FITC)-labeled anti-CD19 (BD Biosciences) and Zenon® Alexa Fluor® 647-labelled anti-ROR1 or control human IgG1 ET901 (Eureka Therapeutics) for 30 minutes on ice. Following incubation, the cells were washed twice in FACS buffer and fixed in 2% paraformaldehyde in PBS (final concentration). Cells were run on a BD LSRII flow cytometer (BD Biosciences) and analyzed using FlowJo software (Treestar).
CLL cells identified as CD5 and CD19 double positive were assessed for anti-ROR1 or control Ig staining.

T1 sequence (Q01973 30-937 limits assumed): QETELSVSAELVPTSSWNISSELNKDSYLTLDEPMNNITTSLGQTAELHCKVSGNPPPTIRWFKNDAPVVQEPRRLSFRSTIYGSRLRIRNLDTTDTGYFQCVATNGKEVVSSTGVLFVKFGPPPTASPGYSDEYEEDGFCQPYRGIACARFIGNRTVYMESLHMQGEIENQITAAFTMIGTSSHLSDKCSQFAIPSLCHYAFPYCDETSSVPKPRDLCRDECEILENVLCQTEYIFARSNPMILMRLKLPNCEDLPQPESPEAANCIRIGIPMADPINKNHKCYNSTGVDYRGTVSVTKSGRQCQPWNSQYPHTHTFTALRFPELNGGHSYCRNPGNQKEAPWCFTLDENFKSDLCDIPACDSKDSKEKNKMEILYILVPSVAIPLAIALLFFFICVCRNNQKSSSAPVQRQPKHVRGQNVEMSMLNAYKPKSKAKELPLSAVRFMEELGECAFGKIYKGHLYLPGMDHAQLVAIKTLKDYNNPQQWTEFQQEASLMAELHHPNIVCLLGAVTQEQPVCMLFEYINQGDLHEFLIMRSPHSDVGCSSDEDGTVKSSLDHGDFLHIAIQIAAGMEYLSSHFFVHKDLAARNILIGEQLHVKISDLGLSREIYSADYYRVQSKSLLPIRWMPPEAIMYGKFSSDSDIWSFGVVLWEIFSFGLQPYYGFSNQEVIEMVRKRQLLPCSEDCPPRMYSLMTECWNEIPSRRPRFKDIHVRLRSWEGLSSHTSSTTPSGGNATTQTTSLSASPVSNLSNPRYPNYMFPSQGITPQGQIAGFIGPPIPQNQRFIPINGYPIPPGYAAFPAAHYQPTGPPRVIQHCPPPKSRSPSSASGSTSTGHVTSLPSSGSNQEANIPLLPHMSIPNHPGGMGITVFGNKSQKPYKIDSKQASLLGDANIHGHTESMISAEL

Binder | binding result
601-43 (antibody, V domains shown, Zenon Alexa Fluor 647 label, bound non-covalently to the Fc, is not carried in the letters, the phage clone of the same number is m16; also called Antibody 601-43; copies: 2 + 2) VH: QVQLQQSGAEVKKPGASVRVSCKASGYSFGNNGITWVRQAPGQGLEWMGWISTYNGNTNYAQKLQGRVTMTTDTSTSTAYMELRSLRSDDTAVYYCARDYYSDSSGYWDDAFDIWGQGTTVTVSS VL: not shown | binds
601-1 (antibody, V domains shown, Zenon Alexa Fluor 647 label, bound non-covalently to the Fc, is not carried in the letters, the phage clone of the same number is m13; also called Antibody 601-1; copies: 2 + 2) VH: EVQLVESGGGLVKPGGSLRLSCAASGFTFSDYYMSWIRQAPGKGLEWVSYISDSTNTIYYADSVKGRFTVSRDNPKNSLYLQMISLRAEDTAVYYCARAVGAGEGFDHWGQGTLVTVSS VL: not shown | binds
601-86 (antibody, V domains shown, Zenon Alexa Fluor 647 label, bound non-covalently to the Fc, is not carried in the letters, the phage clone of the same number is m27; also called Antibody 601-86; copies: 2 + 2) VH: QVTLKESGPTLLKPTQTLTLTCTFSGFSLSTRGVGVGWIRQPPGQALEWLTLIYWDDDKRYSPSLKSRLTITKDTSKNQVVLTMTNMESVDTATYYCAQQTMTGAFDIWGQGTTVTVSS VL: DIQMTQSPSSVSASVGDRVTITCRASQGISTLLAWYQQKPGKAPKLLISSASSLQSGVPARFSGSGSGTDFTLTISSLQPEDFATYYCQQSYRAPTFGQGTKVEIK | binds
601-137 (antibody, V domains shown, Non-covalent Zenon Alexa Fluor 647 label in the assay, not part of the letters, the phage clone of the same number is m26; also called Antibody 601-137; copies: 2 + 2) VH: QVQLQQSGAEVKKPGASVKVSCKASGYTFSRYYIHWVRQAPGQGLEWMGIINTDGGTTTYAQKFQGRLTMTRDTSTSTVYMELSSLRSDDTAVYYCARDYGTIDARRFDYWGQGTLVTVSS VL: not shown | binds
601-51 (antibody, V domains shown, Zenon Alexa Fluor 647 label, bound non-covalently to the Fc, is not carried in the letters, the phage clone of the same number is m19; also called Antibody 601-51; copies: 2 + 2) VH: not shown VL: QSALTQPASVSGSPGQSITISCTGTSSDFGDYDYVSWYQQHPGKAPKLMIYDVSDRPSGVSNRFSGSKSGNTASLTISGLQAEDEADYFCSSFTTSSTLVFGGGTKLTVL | binds
601-56 (antibody, V domains shown, Zenon Alexa Fluor 647 label, bound non-covalently to the Fc, is not carried in the letters, the phage clone of the same number is m28; also called Antibody 601-56; copies: 2 + 2) VH: QLQLQESGPGLVKPSETLSLTCTVSGGSISSSSYYWGWIRQPPGKGLEWIGSIYYSGSTYYNPSLKSRVTISVDTSKNQFSLKLGSVTAADTAVYYCARHDGTDAFDIWGQGTTVTVSS VL: QSVLTQPASVSGSPGQSITISCTGTSSDFGDYDYVSWYQQHPGKAPKLMIYDVSDRPSGVSNRFSGSKSGNTASLTISGLQAEDEADYFCSSLTTSSTLVFGGGTKLTVL | binds
601-69 (antibody, V domains shown, Zenon Alexa Fluor 647 label, bound non-covalently to the Fc, is not carried in the letters, the phage clone of the same number is m50; also called Antibody 601-69; copies: 2 + 2) VH: QVQLVQSGAEVKKPGESLKISCKGSGYSFTSYWIGWVRQMPGKGLEWMGIIYPGDSDTRYSPSFQGQVTISADKSISTAYLQWSSLKASDTAMYYCARLSSSSYDAFDIWGQGTMVTVSS VL: QSALTQPASVSGSPGQSITISCTGTSSDVGGYNYVSWYQQHPGKAPKLMIYDVSNRPSGVSNRFSGSKSGNTASLTISGLQAEDEADYYCSSYTSSSIPWVFGGGTKLTVL | binds
